Results: patent publication US20120282257A1

Experiments:
[1] = target: human CD99 on live/intact cells (human) (UniProt P14209); experiment: flow cytometry, live H-825 cells (Ewing sarcoma)
[2] = target: human CD99 on live/intact cells (human) (UniProt P14209); experiment: flow cytometry, live HSSC163 cells (mesenchymal)
[3] = target: human CD99 on live/intact cells (human) (UniProt P14209); experiment: flow cytometry, live RM-82 cells (Ewing sarcoma)
[4] = target: human CD99 on live/intact cells (human) (UniProt P14209); experiment: flow cytometry, PBMC
[5] = target: human CD99 on live/intact cells (human) (UniProt P14209); experiment: flow cytometry, live HSSC168 cells (mesenchymal)
[6] = target: human CD99 on live/intact cells (human) (UniProt P14209); experiment: flow cytometry, live MOS cells (osteosarcoma)
[7] = target: human CD99 on live/intact cells (human) (UniProt P14209); experiment: flow cytometry, live U2-OS cells (osteosarcoma)
[8] = target: human CD99 on live/intact cells (human) (UniProt P14209); experiment: flow cytometry, live SKES-1 cells (Ewing sarcoma)
[9] = target: human CD99 on live/intact cells (human) (UniProt P14209); experiment: flow cytometry, live RD-ES cells (Ewing sarcoma)
[10] = target: human CD99 on live/intact cells (human) (UniProt P14209); experiment: flow cytometry, live TC-71 cells (Ewing sarcoma)
[11] = target: human CD99 on live/intact cells (human) (UniProt P14209); experiment: flow cytometry, live IOR/OS7 cells (osteosarcoma)
[12] = target: human CD99 on live/intact cells (human) (UniProt P14209); experiment: flow cytometry, live MG-63 cells (osteosarcoma)

Chain of UniProt P14209 (P14209 23-185): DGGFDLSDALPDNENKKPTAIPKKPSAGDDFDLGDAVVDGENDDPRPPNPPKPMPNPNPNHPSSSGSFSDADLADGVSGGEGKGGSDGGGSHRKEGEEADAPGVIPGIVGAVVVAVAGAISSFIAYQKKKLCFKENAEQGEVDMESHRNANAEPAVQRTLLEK

percent of cells positive [1]: 75 to 100% | percent of cells positive [2]: 50 to 75% | percent of cells positive [3]: 75 to 100% | percent of cells positive [4]: 75 to 100% | percent of cells positive [5]: 75 to 100% | percent of cells positive [6]: 75 to 100% | percent of cells positive [7]: 50 to 75% | percent of cells positive [8]: 75 to 100% | percent of cells positive [9]: 75 to 100% | percent of cells positive [10]: 75 to 100% | percent of cells positive [11]: 75 to 100% | percent of cells positive [12]: 75 to 100%
Substance: mAbO13 (antibody)
